The domain aggregation screens of Martell et al. (2025)

assay: soluble fraction after stress (log2 fold change); higher = more stays soluble; pooled small domains, quantitative proteomics; conditions: stress: 75 degC
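Note: 20 min heating vs room temperature control held 20 min.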

Sequence	soluble fraction (log2)
HMSSQADEEALFKLLAANPYSDEQLEEIRIAIGSGIAYKDIIRIADIGNTAERMKQLRLEFTKDTAN	0.173
HMSSQGSLEKGYSALLDGRLDDAALAYGAALAANPMERDALLGLAYVAHSKGRREEAQALYRKVLR	-0.303
HMSSSTFVGRVAVITIGEARQNSPAEARFKDRHGTTHYVMVEPMEDVVFKQGDKVLLVESAGATFKVIEPA	-1.58
HMSSTSISFNDFQKYWLSNDIKSFQLREDKMTVQGSLKNGTAYETVVPSERLFQFIGQHPKD	0.863
HMSSVDLLSERERQVLARISRGMSNEEIAAELAITPRTVRNHLANIYGKIDVHSRAEAVVWARERGIT	-0.362
HMSSVEQAILETLSKEHSHLTSLQVFEEIRGRLPAVNQSTVYRALERLVEQGVVSVSDMGTHAAVYE	-0.197
HMSSVMMPDLTGESAIVAMERLQQLGLLPKVEEVDSYREPGIVLEQLPRAGEKIKRGRIAILKVSS	-0.0579
HMSSVTGMERFLSSGAVKGIGKTMAARIVEHFGTETMTVLESFPERLAEVPGIGAKKAEAIGQSYSEISD	0.158
HMSSVVARRARIATLVVETSVASQEELGRLLADEGITVTQATLSRDLDALGAVKVLSADGGTRYRIPGQ	-1.87
HMSSVVVARTWTDTTGDFKVEAELLGVEGGLVRLKKEDGTVLSVPIAKLSTADRTFLQENQP	0.00842
HMSSWEDNFSYWIRNVAETLDKDLLNVANSKLEKIIINAALDQTNGKKNEAAILLGLGRNTLAKKIKELG	-0.799
HMSSWEEQLKIWAKNELASGNTDILARATVSFEQILIEAALTHTGGRKKTAAELLGWGRNTLTRKIKELHI	0.0904
HMSSWEVLAEPIQTVMRRYGVPGAYEKLKEVTRGKSLTAEALHALIRSLDIPQADKERLLALTPAAWA	-1.34
HMSSYAEVMERSKYLQLHKYKIWKSETDGFWRTYYLNEQGKRKMKKLKHSEDMIDFVIEYVQNNE	-2.17
HMSTDDILSSITALRLASVQFQLGQFDPALDSLKLVKEQAWSGAKNILAGDIQLAKGDKEAAKASYQQAQQ	-0.422
HMSTDIPFNIFSQKWNADEIDSIVVENNKIEGKTKDNKKFSTYAPDELLTSLMENHKNPNVIVEFRAP	0.576
HMSTDKIDIVSSAILSSLKDNDGFIGLTDKSPPPEIYTAFRVSKKVFKQAIGALYKQRRITLESSGIRLIS	-0.288
HMSTDSTQLLGFNKTGEELPIYKEANEENKFAEIPQNVYVKNFGQNGEFTKIKYLDQEGYVKTAGLK	0.955
HMSTEEYDRGYEQGLEEAAKADDAWVANLIKIYSQNTPESMPETMKGRLDAFLYEQQRRAQSVPEM	0.918
HMSTIAAMADPRAWALEMLGFPPGTVKPSKREIQVRFRESLRDVHPDHGGDSRTASASINDLSEARRVLLS	-0.36
HMSTLGIRIKHYRTDSNLTQKELAGLINVKRDALANWETDRALPDVMNLKKLAEVFQVSTDELLQV	-1.02
HMSTLTGTQRAAVVLMQMSPPNAARVMAQFTDAEAEEIAAEIVRLRKVDPEVAEQIMKDFHEAALSS	-0.226
HMSTLTLTSGTYAVGENIKAGKYTIMGSGSIAISSSGKARVNSNLTADRKDYVLNDDETIKIKGKAQFIPI	-0.315
HMSTMKIVRVKSNLKIGQEITSKDIEVVEVGAYNMPSEVMKNSEDVIGKYASAEMIKGEYVLAAKISDTP	0.151

Sequence	soluble fraction (log2)
HMSTMNRLPRHEQILKLVRANGFMPIEELARLLDVTPQTIRRDINTLSEENLLRRFHGGAALGPSVE	-0.371
HMSTMTGTVDTPGASLNVRTGAWGPIVGQLAHGSKVTIIGSSGDWFKISYNGATRYVHKNYVNTT	-0.683
HMSTMVEIPNVVGMTIKEAKEALGNLGLSISKISGSNEDSAIVTEVSPAPGSSVKRDESITLVGQPK	0.683
HMSTPAKVTPTNPIVKQLFNAAETQIKNKDIQNAIASYEKADTLTTDEKVKQYIHYQLSTLKDDN	-0.0812
HMSTPERQEVLDILKRQGEMTPLQIAGQISRTSKSVSNILSKLKREGFVANGAKYGSWVSTES	-0.0675
HMSTPTVDTKTKLDLYNLLYKKDLNYLDAYNFVLDNFGSDNIDIMFKMLGLDFTNWVIENKPE	0.139
HMSTQYKTGHYKTTDALNLRASYSTSSNVLLTIPKGKTIVVTRVHNNEWGQVEYNGKTGWIYLEYTAYTES	-1.85
HMSTSAAELLRTARQQAGMSQSAVAELAKTSQSAIAMYEAGNREPSLPVLQRLLAATGHQLSLSVLP	-0.337
HMSTTILSFQNRVVIETLHNEGRSLRYIANYLGFSKATIFNELHRLNSEYRAELAQADFERKVSQR	-3.06
HMSTVAETVYNEIRDDILYGELQPGVKLKLEALRERYSVGVNTLREVLNRLVASGFVFVEGQKGFRVV	0.365
HMSTVEKDSELGGNFRIASYPTGKGQISEAIRSMIVRAKQVGVNIRLNTEATEEPLRALAPNAVILATG	0.188
HMSTVELPVQINGKVRGRITVPANAGQEDVKQAALADSKVQRYIEGASIRKVIVVPRKLVNIVV	-0.215
HMSTVTGLINYLSSGLIKGVGEATARKLVDHFGLDVLDIIQFNPQRLLEVDGIGEARAEMIASSFSEQK	-1.21
HMSVDIIPGKADQKVRLIHDPAIVGVTTGGVKTAGPHTLIQIELGPNERPYKRLSLLELIPEG	-0.347
HMSVDVGMQLRKLREERKISMRELARLSGLSANALSMIERGLTSPSVSTLNKLAGALEVPITAFFRI	-1.35
HMSVEVPNLIGKTLDQVDIDLKSLDLSFVILDSARYNSSFKPLSVIDHQPISGAKVKVNRKIYLTINPS	-0.411
HMSVKIELNENEQAIFTAVQKVNEAVLPELRAQFSDMSNKAWDNSVKMLTKNNLLKVSKEGEILYIRM	-1.22
HMSVKSVSLRKISYKVRRGDSLYNIAKNFSLSINDITHWNSINKKSYLQPGQRLTLYINPRN	-2.18
HMSVKVFRDQILLNNDSDKMLQLSFSNLFGQKVLETSISPGKSAISTGNLPPGIYFITTSPATGVMRVII	-1.78
HMSVLRLGNRGPDVRKLQLLLNSTLVPSPQLTVDGDFGKRTEQAVVTFQQMRGLPQDGIVGQRTWALLGQT	-0.652
HMSVLSVASKNQAINPGQVVALLKDGIKLNDDGRVEILDNNNNIRYNEKGNLLSIEERVKEFLDANPHFRQ	-0.399
HMSVLVLPMLKELTHEDREVVELFYLNDMSVREIALIISVPIGTVKSRLHRARAQLKHQIVNLNQ	-3.76
HMSVPVNAPMPGTILDIKVKAGAAVKAGDVVMILEAMKMENEISAPQDGTIASIDVRKGDTVNSGDVLYTM	-0.198
HMSVSVNAPMPGNILDVRAKTGESIQKGQVIVILEAMKMENEIMAPQDGKISSINTSKGSTVNSGDLLFTM	-0.106

Sequence	soluble fraction (log2)
HMSVTMPNLVGLDEQTAVTRINSSNLSYGSTNYVHSDHEAGVVFKQSTPAYTEVDEHTKIYIWVSLGPEE	-0.729
HMSVTPLLDATEKDKTKYRDLWLVAVVKNGVNYARKYKFGYVYAWLYRHDRDWLLQVNNQHKIPNIT	0.0707
HMSVTVMVLRAAGDIQAGTEITDKHLATVEVGEYGLPEGIINDKDSILGKIALTDIAKGDYFFSQKLG	-0.954
HMSVVKPIYIGMMTSEVEAIMGKPFEVITNNNSKNNQLWIYKYQDKRSVMLTFTNYKLIKIE	-2.7
HMSWDNELLERAHKIIELYPQKRSALGPLLYLAQEKDGFISDDSIVEISNLVDITEVQVKSVSSFYSMY	-0.903
HMSWGDVKLTMWGAEEDQTMLREMADAFIEQNADKGNVTIEIGVQSESSAKDTVLADPESAADVFA	0.242
HMSWRWVPVSGAYTTSALEAAGLTRAFDDQAAAEEWLGLFFDDLLREGVGEVSLYEEDRLVYGPMSL	-2.49
HMSYANVEWRDFLNSLDEKYRIVVILYYVQGFKTREIAEILQINQSTVRGRLAKAREKLEQQYN	-1.4
HMSYFIFDGVLNLGKQYELKGEESSHITKSRRLRPGDSFLIQDQEGQRFEAILKSFDRNSLIFTPHKPTA	-0.722
HMSYFNEYEVGDTIRVVNGPLADQISTITAIDKEKGLVNISTVFFGRENNVQVSINDIEKYN	0.0153
HMSYGDLTGRTVVITGASKGIGARASRVLAQAGASVVGLARSVDELTALKYDLENDGLSFDFG	≥ 1.04
HMSYKYYSTERPLMPGSFPKPQGNTVLNIENFNDRSYVGKIGREAWGFIEYEKPISPVLLDDYELVAA	-0.235
HMSYLELENLAEDIKATYDNLSTDLREVFRLSDIEGLSYEEISNKMNIPIGTVRSRLHRARETLLRIFNN	-1.39
HMSYPTAVTQTTLNVRTGPGTQYERLGAFVENTEVIVLTRQPEWIQVRGMSGDKAIIGWVSARYLQMNP	-2.21
HMSYQNKLNYLINAFGGADNFQKLLGVGPSAISNYKSRKHLPLNQAKRLSKIAPQFGFSLDPHSLQIST	-0.856
HMSYQSYDKVVGDTFFEANLKAESKFGKGNFEIISTRRVKHPIYLGFGHKELVELTIGIHDP	-1.33
HMSYTAYLSQELGDMSREIQSELLKKGYNGSSSFTIVRTYMGSSVKFSVYNANNGELITSKTINM	-2.9
HMSYTDIILKMSNVNFLTKVNFTNSEKNKNIKNGNFLIKKGKNRITAAFDYKDNELVISKSNLRNTFL	-1.18
HMTAEVIYVDVGGEVNQPSVVELTDGSRVTDAIAAAGGLTEKADLTDINRAAFVSDGEKIFIPSQEE	0.4
HMTAFAGLTPRERDLLELIAQGRDNAQIAATLGVSDKTVRNHITHIFAKLEVETRAQAIVLARNAGFGRA	-1.12
HMTAGYFTRGSHQDEVLRIQGTPSGVNKYSDHEVWNYGLSSVDISLRDRRVTEWNNISGNLKV	-0.149
HMTAKRELILRVFMDSNGKLLSIDDVFMEMRKKRSHRTSKMTVKRAIDLLVDLGLLKEVLFDDDNIKYEYV	-1.26
